Source: patent US20190170753A1 (ICAHN SCHOOL OF MEDICINE AT MOUNT SINAI, published 2019)

Columns and labels:
Assay in all cases: peptide EIA, 2 ug/mL IgG;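 further: purified mouse IgG binding to individually well-coated synthetic peptides, detected with peroxidase anti-mouse IgG Fc and o-phenylenediamine, IgG incubated at least 1 h at room temperature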
HCV core peptide 1 = target: T1, HCV core peptide 1 (hepatitis C virus, N-terminal biotin; C-terminal amide)
T1 construct: range 1-15

HCV core peptide 2 = target: T2, HCV core peptide 2 (hepatitis C virus, N-terminal biotin; C-terminal amide)
T2 construct: range 3-17

HCV core peptide 5 = target: T3, HCV core peptide 5 (hepatitis C virus, N-terminal biotin; C-terminal amide)
T3 construct: range 9-23

HCV core peptide 8 = target: T4, HCV core peptide 8 (hepatitis C virus, N-terminal biotin; C-terminal amide)
T4 construct: range 15-29

HCV core peptide 12 = target: T5, HCV core peptide 12 (hepatitis C virus, N-terminal biotin; C-terminal amide)
T5 construct: range 23-37

HCV core peptide 14 = target: T6, HCV core peptide 14 (hepatitis C virus, N-terminal biotin; C-terminal amide)
T6 construct: range 27-41

HCV core peptide 15 = target: T7, HCV core peptide 15 (hepatitis C virus, N-terminal biotin; C-terminal amide)
T7 construct: range 29-43

HCV core peptide 19 = target: T8, HCV core peptide 19 (hepatitis C virus, N-terminal biotin; C-terminal amide)
T8 construct: range 37-51

HCV core peptide 20 = target: T9, HCV core peptide 20 (hepatitis C virus, N-terminal biotin; C-terminal amide)
T9 construct: range 39-53

HCV core peptide 21 = target: T10, HCV core peptide 21 (hepatitis C virus, N-terminal biotin; C-terminal amide)
T10 construct: range 41-55

HCV core peptide 22 = target: T11, HCV core peptide 22 (hepatitis C virus, N-terminal biotin; C-terminal amide)
T11 construct: range 43-57

HCV core peptide 28 = target: T12, HCV core peptide 28 (hepatitis C virus, N-terminal biotin; C-terminal amide)
T12 construct: range 55-69

HCV core peptide 30 = target: T13, HCV core peptide 30 (hepatitis C virus, N-terminal biotin; C-terminal amide)
T13 construct: range 59-73

HCV core peptide 32 = target: T14, HCV core peptide 32 (hepatitis C virus, N-terminal biotin; C-terminal amide)
T14 construct: range 63-77

HCV core peptide 35 = target: T15, HCV core peptide 35 (hepatitis C virus, N-terminal biotin; C-terminal amide)
T15 construct: range 69-83

HCV core peptide 37 = target: T16, HCV core peptide 37 (hepatitis C virus, N-terminal biotin; C-terminal amide)
T16 construct: range 73-87

HCV core peptide 39 = target: T17, HCV core peptide 39 (hepatitis C virus, N-terminal biotin; C-terminal amide)
T17 construct: range 77-91

HCV core peptide 41 = target: T18, HCV core peptide 41 (hepatitis C virus, N-terminal biotin; C-terminal amide)
T18 construct: range 81-95

HCV core peptide 50 = target: T19, HCV core peptide 50 (hepatitis C virus, HELM PEPTIDE1{[O=C1N[C@H]2[C@H](CS[C@H]2CCCCC(=O)[*:2])N1].S.G.S.G.S.P.R.G.S.R.P.S.W.G.P.T.D.P.R.[am]}$$$$V2.0; SMILES …)
T19 construct: also called aa 99-113
T19 peptide: SGSGSPRGSRPSWGPTDPR

HCV core peptide 51 = target: T20, HCV core peptide 51 (hepatitis C virus, HELM PEPTIDE1{[O=C1N[C@H]2[C@H](CS[C@H]2CCCCC(=O)[*:2])N1].S.G.S.G.R.G.S.R.P.S.W.G.P.T.D.P.R.R.R.[am]}$$$$V2.0; SMILES …)
T20 peptide: SGSGRGSRPSWGPTDPRRR

HCV core peptide 56 = HCV core peptide 56 (hepatitis C virus, N-terminal biotin; C-terminal amide)
HCV core peptide 61 = target: T21, HCV core peptide 61 (hepatitis C virus, N-terminal biotin; C-terminal amide)
T21 construct: range 121-135

HCV core peptide 62 = target: T22, HCV core peptide 62 (hepatitis C virus, N-terminal biotin; C-terminal amide)
T22 construct: range 123-137

HCV core peptide 67 = HCV core peptide 67 (hepatitis C virus, N-terminal biotin; C-terminal amide)
HCV core peptide 68 = target: T23, HCV core peptide 68 (hepatitis C virus, N-terminal biotin; C-terminal amide)
T23 construct: range 135-149

HCV core peptide 72 = target: T24, HCV core peptide 72 (hepatitis C virus, N-terminal biotin; C-terminal amide)
T24 construct: range 143-157

HCV core peptide 74 = HCV core peptide 74 (hepatitis C virus, N-terminal biotin; C-terminal amide)
HCV core peptide 77 = HCV core peptide 77 (hepatitis C virus, N-terminal biotin; C-terminal amide)
HCV core peptide 78 = HCV core peptide 78 (hepatitis C virus, N-terminal biotin; C-terminal amide)
HCV core peptide 79 = target: T25, HCV core peptide 79 (hepatitis C virus, N-terminal biotin; C-terminal amide)
T25 construct: range 157-171

HCV core peptide 81 = target: T26, HCV core peptide 81 (hepatitis C virus, N-terminal biotin; C-terminal amide)
T26 construct: range 161-175

HCV core peptide 85 = HCV core peptide 85 (hepatitis C virus, N-terminal biotin; C-terminal amide)
HCV core peptide 87 = HCV core peptide 87 (hepatitis C virus, N-terminal biotin; C-terminal amide)

B1: Neo4 mouse monoclonal antibody (antibody, V domains shown)
VH: QIQLKESGPAVIKPSQSLSLTCIVSGFSITSSVYCWQWIRQPPGKGLEWMGRICYDGSVDYSPSITSRGTISRDTSLNKVFFQLSSVTNEDTAMYYCSRENHIDYYDTTYPSFDVWGAGTTVTVSS
VL: DIVLTQSPASLIVSLGQRATISCRASKSVNEYGYTYMHWYQQKPGLPPKLLIYLASNLDSGVPARFSGSGSGTDFTLNIHPVEEEDAATYYCQHSRELPYTFGGGTKLEIKR
notes: Mouse hybridoma antibody, isotype IgG1, purified with Protein G; also called HCV Neo4
- OD (A492 nm) (HCV core peptide 1): 0.06 OD
- OD (A492 nm) (HCV core peptide 2): 0.06 OD
- OD (A492 nm) (HCV core peptide 5): 0.05 OD
- OD (A492 nm) (HCV core peptide 8): 0.06 OD
- OD (A492 nm) (HCV core peptide 12): 0.07 OD
- OD (A492 nm) (HCV core peptide 14): 0.06 OD
- OD (A492 nm) (HCV core peptide 15): 0.06 OD
- OD (A492 nm) (HCV core peptide 19): 0.05 OD
- OD (A492 nm) (HCV core peptide 20): 0.05 OD
- OD (A492 nm) (HCV core peptide 21): 0.05 OD
- OD (A492 nm) (HCV core peptide 22): 0.07 OD
- OD (A492 nm) (HCV core peptide 28): 0.04 OD
- OD (A492 nm) (HCV core peptide 30): 0.05 OD
- OD (A492 nm) (HCV core peptide 32): 0.06 OD
- OD (A492 nm) (HCV core peptide 35): 0.04 OD
- OD (A492 nm) (HCV core peptide 37): 0.04 OD
- OD (A492 nm) (HCV core peptide 39): 0.05 OD
- OD (A492 nm) (HCV core peptide 41): 0.04 OD
- OD (A492 nm) (HCV core peptide 50): 1.03 OD
- OD (A492 nm) (HCV core peptide 51): 0.96 OD
- OD (A492 nm) (HCV core peptide 56): 0.04 OD
- OD (A492 nm) (HCV core peptide 61): 0.05 OD
- OD (A492 nm) (HCV core peptide 62): 0.05 OD
- OD (A492 nm) (HCV core peptide 67): 0.05 OD
- OD (A492 nm) (HCV core peptide 68): 0.04 OD
- OD (A492 nm) (HCV core peptide 72): 0.04 OD
- OD (A492 nm) (HCV core peptide 74): 0.05 OD
- OD (A492 nm) (HCV core peptide 77): 0.05 OD
- OD (A492 nm) (HCV core peptide 78): 0.06 OD
- OD (A492 nm) (HCV core peptide 79): 0.05 OD
- OD (A492 nm) (HCV core peptide 81): 0.04 OD
- OD (A492 nm) (HCV core peptide 85): 0.05 OD
- OD (A492 nm) (HCV core peptide 87): 0.05 OD
